For 3 molecules, Kd results are on record in patent US20250188193A1.

One may read the Kd as the constant that tells how readily two partners part at equilibrium.

Test [1] concerns the target Rituximab G2F (galactosylated fucosylated glycoform). Description: SPR (Biacore T200), 1:1 Langmuir kinetic fit. Background: In SPR one partner is held on a chip, and binding of the other changes the refractive index at the surface.
Test [2] addresses Rituximab G2 (galactosylated afucosylated glycoform). Description: SPR (Biacore T200), 1:1 Langmuir kinetic fit.
For test [3] the target is unchanged. Description: SPR, 1:1 Langmuir global fit, 1024 to 32 nM.
The target is the same in test [4]. Description: SPR; drawn table, KD (G2).

Residue numbers refer to the chain shown, from its start.

B1: D3 (VHH, not shown: small tags and cut ends)
VHH: QVQLQESGGGLVQAGGSLRLSCAASGNISADRYMGWYRQAPGKEREFVAAIGYGGTTYYADSVKGRFTISRDNAKNTVYLQMNSLKPEDTAVYYCAVVDGAHSRHRYWGQGTQVTVSS
For the molecule B1, the values for the Kd in test [1], in test [2] and in test [3] were 1900 nM, 323 nM and 353 nM, respectively.

B2: E2 (VHH)
VHH: QVQLQESGGGLVQAGGSLRLSCAASSYISRYHTMGWYRQAPGKERSFVAGITWGGLTYYADSVKGRFTVSRDNAKNTVYLQMNSLKPEDTAVYYCAVDGGTRADPYHYYWGQGTQVTVSS
For the molecule B2, the Kd in test [4] turned out to be 4740 nM.

B3: E4 (VHH)
VHH: B2 VHH with S26P, S46E, G50A, L56S, V69I, R102Y
B3: in test [4], the Kd came to 2480 nM.
